Source: patent publication US20080227848

Assays:
[1] = molecular target: T1, Gankyrin/p28-II peptide
T1 chain: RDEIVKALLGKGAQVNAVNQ

[2] = molecular target: T2, GST HIF-1α 786-826, Q16665; settings: scale: % activity relative to GST HIF-1α 786-826
T2 chain: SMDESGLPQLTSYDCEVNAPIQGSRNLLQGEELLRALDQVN

[3] = molecular target: T3, FGIF peptide
T3 chain: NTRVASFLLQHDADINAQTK

[4] = molecular target: T4, IkappaB-alpha, recombinant protein, P25963
T4 chain: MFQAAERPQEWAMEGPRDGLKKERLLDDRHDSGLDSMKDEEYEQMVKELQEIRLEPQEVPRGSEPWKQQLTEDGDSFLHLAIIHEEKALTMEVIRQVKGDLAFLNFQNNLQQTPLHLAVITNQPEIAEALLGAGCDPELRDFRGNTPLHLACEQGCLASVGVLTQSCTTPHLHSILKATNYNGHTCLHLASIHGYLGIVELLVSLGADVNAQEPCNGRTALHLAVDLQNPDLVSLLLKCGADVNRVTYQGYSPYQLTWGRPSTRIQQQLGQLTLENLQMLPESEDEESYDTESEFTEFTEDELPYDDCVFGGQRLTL

[5] = molecular target: T5, GABPbeta peptide
T5 chain: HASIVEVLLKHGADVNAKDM

[6] = molecular target: T6, p105 21 mer peptide
T6 chain: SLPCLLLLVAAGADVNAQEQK

[7] = molecular target: T7, Tankyrase 1/2 peptide
T7 chain: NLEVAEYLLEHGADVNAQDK

[8] = molecular target: GST p105 ARD N to A mutant; settings: scale: % activity relative to GST HIF-1α 786-826
[9] = molecular target: T8, CAD, HIF C-terminal transactivation domain standard peptide
T8 chain: DESGLPQLTSYDCEVNAPI

[10] = molecular target: T9, Myotrophin peptide
T9 chain: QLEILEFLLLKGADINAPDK

[11] = molecular target: T10, p105 ARD (ankyrin repeat domain of p105, amino acid residues 537-809), free form; settings: scale: % activity relative to GST HIF-1α 786-826
T10 chain: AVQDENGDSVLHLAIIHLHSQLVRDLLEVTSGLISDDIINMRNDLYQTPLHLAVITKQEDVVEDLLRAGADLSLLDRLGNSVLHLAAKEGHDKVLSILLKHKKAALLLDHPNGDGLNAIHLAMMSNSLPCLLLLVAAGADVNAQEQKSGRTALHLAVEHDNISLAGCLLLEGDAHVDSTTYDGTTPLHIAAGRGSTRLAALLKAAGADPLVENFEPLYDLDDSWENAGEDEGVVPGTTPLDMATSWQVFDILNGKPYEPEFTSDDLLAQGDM

[12] = molecular target: T11, GST p105 ARD; settings: scale: % activity relative to GST HIF-1α 786-826
T11 chain: T10 chain

[13] = molecular target: T12, 2-5A-d-R peptide
T12 chain: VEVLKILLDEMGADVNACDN

[14] = molecular target: T13, IkBa 21 mer peptide
T13 chain: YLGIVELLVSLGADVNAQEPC

[15] = molecular target: p105 ARD L668K mutant
[16] = molecular target: T14, FEM-1 21 mer peptide
T14 chain: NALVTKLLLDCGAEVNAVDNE

[17] = molecular target: T15, p19-INK-4d peptide
T15 chain: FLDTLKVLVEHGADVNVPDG

[18] = molecular target: T16, M110 peptide
T16 chain: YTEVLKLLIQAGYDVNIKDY

[19] = scale: % activity relative to GST HIF-1α 786-826

B1: factor inhibiting hypoxia-inducible factor (FIH), highly purified recombinant (protein)
chain: MAATAAEAVASGSGEPREEAGALGPAWDESQLRSYSFPTRPIPRLSQSDPRAEELIENEEPVVLTDTNLVYPALKWDLEYLQENIGNGDFSVYSASTHKFLYYDEKKMANFQNFKPRSNREEMKFHEFVEKLQDIQQRGGEERLYLQQTLNDTVGRKIVMDFLGFNWNWINKQQGKRGWGQLTSNLLLIGMEGNVTPAHYDEQQNFFAQIKGYKRCILFPPDQFECLYPYPVHHPCDRQSQVDFDNPDYERFPNFQNVVGYETVVGPGDVLYIPMYWWHHIESLLNGGITITVNFWYKGAPTPKRIEYPLKAHQKVAIMRNIEKMLGEALGNPQEVGPLLNTMIKGRYN
With B1 the Activity + FIH (relative to synthetic HIF1alphaCAD) (relative to synthetic HIF1alphaCAD) [1] was 116, the “Hydroxylation of peptide observed by LC-MS analysis” value (from here on “Hydroxylation of peptide observed”) [1] was “Yes” and the % activity relative to GST HIF-1α 786-826 (decarboxylation of 2OG) [2] was 100. For the same protein, the Activity + FIH (relative to synthetic HIF1alphaCAD) (relative to synthetic HIF1alphaCAD) [3] was 168, the “Hydroxylation of peptide observed” value [3] was “Yes” and the “MALDI-TOF mass spectrometry of tryptic fragments after incubation with FIH” value [4] was “The results demonstrated hydroxylation of the fragment”. The % activity relative to GST HIF-1α 786-826 (decarboxylation of 2OG) [4, 19] was 144, the Activity + FIH (relative to synthetic HIF1alphaCAD) (relative to synthetic HIF1alphaCAD) [5] was 107 and the “Hydroxylation of peptide observed” value [5] was “Yes”. For the same protein, the “2D-NMR spectra of the peptide after incubation with FIH” value [6] was “consistent with asparaginyl hydroxylation”, the % activity relative to GST HIF-1α 786-826 (decarboxylation of 2OG) [6, 19] was 100 and the Activity + FIH (relative to synthetic HIF1alphaCAD) (relative to synthetic HIF1alphaCAD) [7] was 107. The “Hydroxylation of peptide observed” value [7] was “Yes”, the “site of hydroxylation by LC-MS” value [7] was “LC-MS analyses located the site of hydroxylation to the internal asparagine residue in the case of tankyrase” and the % activity relative to GST HIF-1α 786-826 (decarboxylation of 2OG) [8] was 12. For the same protein, the Activity + FIH (relative to synthetic HIF1alphaCAD) (relative to synthetic HIF1alphaCAD) [9] was 100, the “Hydroxylation of peptide observed” value [9] was “Yes” and the % activity relative to GST HIF-1α 786-826 (decarboxylation of 2OG) [9, 19] was 75. For the same protein, the Activity + FIH (relative to synthetic HIF1alphaCAD) (relative to synthetic HIF1alphaCAD) [10] was 154, the “Hydroxylation of peptide observed” value [10] was “Yes” and the % activity relative to GST HIF-1α 786-826 (decarboxylation of 2OG) [11] was 164. For the same protein, the % activity relative to GST HIF-1α 786-826 (decarboxylation of 2OG) [12] was 129, the Activity + FIH (relative to synthetic HIF1alphaCAD) (relative to synthetic HIF1alphaCAD) [13] was 27.8 and the “Hydroxylation of peptide observed” value [13] was “Yes”. For the same protein, the “direct peptide substrate hydroxylation by LC-MS” value [14] was “both the FEM-1 and IkappaB-alpha peptides were observed to be hydroxylated under standard assay conditions”, the % activity relative to GST HIF-1α 786-826 (decarboxylation of 2OG) [14, 19] was 111 and the “MALDI ToF mass spectrometry of the tryptic digest after incubation with FIH” value [15] was “following incubation with FIH, a peak at 1,542 Da appears in the spectrum that corresponds to the hydroxylated 1,526 Da peptide i.e. +16 Da”. The “2D-NMR spectra of the peptide after incubation with FIH” value [16] was “consistent with asparaginyl hydroxylation”, the “direct peptide substrate hydroxylation by LC-MS” value [16] was “both the FEM-1 and IkappaB-alpha peptides were observed to be hydroxylated under standard assay conditions” and the % activity relative to GST HIF-1α 786-826 (decarboxylation of 2OG) [16, 19] was 89. For the same protein, the Activity + FIH (relative to synthetic HIF1alphaCAD) (relative to synthetic HIF1alphaCAD) [17] was 124, the “Hydroxylation of peptide observed” value [17] was “Yes” and the Activity + FIH (relative to synthetic HIF1alphaCAD) (relative to synthetic HIF1alphaCAD) [18] was 122. For the same protein, the “Hydroxylation of peptide observed” value [18] was “Yes”.
